In assay [1] the target is T1, human PLD4 (phospholipase D4) protein (UniProt Q96BZ4 1-506).
T1 chain: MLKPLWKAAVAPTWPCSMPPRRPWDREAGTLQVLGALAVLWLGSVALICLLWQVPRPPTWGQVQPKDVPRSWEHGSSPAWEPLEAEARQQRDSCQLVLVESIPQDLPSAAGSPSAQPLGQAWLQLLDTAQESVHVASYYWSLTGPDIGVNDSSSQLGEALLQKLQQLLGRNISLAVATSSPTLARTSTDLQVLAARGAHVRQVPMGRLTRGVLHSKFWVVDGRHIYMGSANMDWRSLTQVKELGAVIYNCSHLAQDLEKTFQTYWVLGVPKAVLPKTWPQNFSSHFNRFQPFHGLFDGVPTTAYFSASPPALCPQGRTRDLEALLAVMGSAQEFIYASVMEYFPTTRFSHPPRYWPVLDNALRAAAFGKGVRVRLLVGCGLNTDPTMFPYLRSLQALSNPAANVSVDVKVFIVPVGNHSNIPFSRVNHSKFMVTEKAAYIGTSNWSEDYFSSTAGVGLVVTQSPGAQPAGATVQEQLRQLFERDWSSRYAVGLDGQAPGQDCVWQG
The assay can be described thus: binding to human PLD4-CT125 stable cells; apparent Kd.

For assay [2], the target named is T2, human PLD4 (phospholipase D4) protein (human, UniProt Q96BZ4 1-506).
T2 construct: Type II transmembrane protein, 506 a.a; also called hPLD4; HuPLD4
T2 sequence: T1 chain
Briefly: FACS titration (0.001 to 30 µg/mL) of purified antibody on human PLD4-CT125 cells, positive cell frequency fitted with GraphPad Prism (FIG. 19). The protocol:
For binding ability of the purified antibody, human PLD4-CT125 expression stable cell strain was reacted to nearly 100% of the positive staining rate at low concentration to high concentration (0.001 μg/mL to 30 μg/mL) of purified PLD4 antibody concentration. The frequency of staining positive cell and the antibody were data-analyzed using Graph Pad Prism version 5 software, and the dissociation constant molar concentration (Kd value) was computed in nM unit.

Assay [3] addresses T3, rhesus monkey PLD4 (rhesus monkey, UniProt Q96BZ4 1-506 (human entry)).
T3 construct: also called rhesus monkey PLD4 protein
T3 chain: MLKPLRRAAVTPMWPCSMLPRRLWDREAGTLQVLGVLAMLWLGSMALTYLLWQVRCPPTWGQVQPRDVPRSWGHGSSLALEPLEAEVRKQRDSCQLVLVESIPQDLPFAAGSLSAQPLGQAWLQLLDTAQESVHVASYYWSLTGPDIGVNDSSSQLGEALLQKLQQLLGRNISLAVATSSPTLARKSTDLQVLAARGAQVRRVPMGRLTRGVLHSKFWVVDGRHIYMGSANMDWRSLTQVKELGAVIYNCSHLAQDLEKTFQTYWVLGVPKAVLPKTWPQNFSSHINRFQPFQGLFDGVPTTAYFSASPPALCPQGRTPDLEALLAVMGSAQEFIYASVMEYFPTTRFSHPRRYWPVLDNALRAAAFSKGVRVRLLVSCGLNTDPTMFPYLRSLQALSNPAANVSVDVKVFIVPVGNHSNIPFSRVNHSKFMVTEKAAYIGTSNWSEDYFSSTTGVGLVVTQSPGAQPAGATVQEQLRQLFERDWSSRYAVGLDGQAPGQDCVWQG
Briefly: FACS, hybridoma culture supernatant on rhesus monkey PLD4-293T transient transfectants; non-binding implied (8C11 is not among the seven). On the technique in general: Flow cytometry measures light scatter and fluorescence of single cells or particles in a stream.

Assay [4] has as its target T4, cynomolgus monkey PLD4 (cynomolgus monkey, UniProt Q96BZ4 1-506 (human entry)).
T4 construct: also called cynomolgus monkey PLD4 protein; cyno PLD4
T4 chain: T3 chain with C56R, R66K, L78P
Briefly: FACS, hybridoma culture supernatant on cynomolgus monkey PLD4-CT125 cells; non-binding implied (8C11 is not among the seven).

Assay [5] addresses T3, rhesus monkey PLD4. The assay can be described thus: FACS, hybridoma culture supernatant on rhesus monkey PLD4-293T transient transfectants; non-binding implied (10C3 is not among the seven).
Assay [6] has as its target T4, cynomolgus monkey PLD4. The assay can be described thus: FACS, hybridoma culture supernatant on cynomolgus monkey PLD4-CT125 cells; non-binding implied (10C3 is not among the seven).
In assay [7] the target is T4, cynomolgus monkey PLD4. The assay can be described thus: FACS, hybridoma culture supernatant on cynomolgus monkey PLD4-CT125 cells; non-binding implied (11D10 is not among the seven).
Assay [8] has as its target T3, rhesus monkey PLD4. Briefly: FACS, hybridoma culture supernatant on rhesus monkey PLD4-293T transient transfectants; non-binding implied (11D10 is not among the seven).
The target in assay [9] is T4, cynomolgus monkey PLD4. Briefly: FACS on cynomolgus monkey PLD4-CT125 cells (FIG. 16).
Assay [10] deals with T3, rhesus monkey PLD4. Briefly: FACS, hybridoma culture supernatant on rhesus monkey PLD4-293T transient transfectants (FIG. 17).
Assay [11] has as its target T5, human PLD5 (human, UniProt Q8N7P1 92-536).
T5 sequence: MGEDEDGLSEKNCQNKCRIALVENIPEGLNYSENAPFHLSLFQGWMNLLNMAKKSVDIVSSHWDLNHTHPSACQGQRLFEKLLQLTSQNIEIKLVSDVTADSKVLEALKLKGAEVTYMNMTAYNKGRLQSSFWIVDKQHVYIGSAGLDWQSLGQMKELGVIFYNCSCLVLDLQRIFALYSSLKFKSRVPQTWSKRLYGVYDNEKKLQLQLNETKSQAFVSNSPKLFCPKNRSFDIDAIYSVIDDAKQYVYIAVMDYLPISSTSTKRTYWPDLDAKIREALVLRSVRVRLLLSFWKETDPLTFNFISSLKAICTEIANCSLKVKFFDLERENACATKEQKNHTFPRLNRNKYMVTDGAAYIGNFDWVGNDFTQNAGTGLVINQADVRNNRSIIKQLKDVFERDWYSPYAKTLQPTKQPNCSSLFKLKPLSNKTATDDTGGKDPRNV
The assay can be described thus: FACS on 293T transfectants (FIG. 8).

The target in assay [12] is T6, human PLD3 (human, UniProt Q8IV08 1-490).
T6 construct: also called human PLB3 [sic]
T6 sequence: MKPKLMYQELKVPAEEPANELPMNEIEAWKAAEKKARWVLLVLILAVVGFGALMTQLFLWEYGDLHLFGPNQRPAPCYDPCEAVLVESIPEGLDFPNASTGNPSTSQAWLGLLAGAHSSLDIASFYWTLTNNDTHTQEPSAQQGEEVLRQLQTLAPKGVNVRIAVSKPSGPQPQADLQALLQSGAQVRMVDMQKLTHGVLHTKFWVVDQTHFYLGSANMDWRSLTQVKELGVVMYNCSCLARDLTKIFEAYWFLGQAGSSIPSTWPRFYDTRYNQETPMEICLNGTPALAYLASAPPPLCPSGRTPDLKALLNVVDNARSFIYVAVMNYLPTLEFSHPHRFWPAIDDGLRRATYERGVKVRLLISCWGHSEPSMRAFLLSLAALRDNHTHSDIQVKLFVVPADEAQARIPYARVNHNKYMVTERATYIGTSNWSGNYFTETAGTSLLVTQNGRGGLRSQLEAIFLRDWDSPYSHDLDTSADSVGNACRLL
Briefly: FACS on 293T transfectants (FIG. 8).

The target of assay [13] is T4, cynomolgus monkey PLD4. The assay can be described thus: FACS on 293T transfectant (FIG. 9).

Positions count from the first letter of the chain named.

B1: anti-PLD4 mouse 8C11 antibody (antibody, mouse IgG2b, V domains shown)
VH: QVQLQQSGAELVKPGASVKLSCKASGYTFTSYYLYWVRQRPGQGLEWIGLINPTNSDTIFNEKFKSKATLTVDKSSSTAYMQLSSLTSEDSAVYYCTREGGYGYGPFAYWGQGTLVTVSA
VL: DVVMTQTPLSLPVSLGDQASISCTSSQTLVHSNGNTYLHWYLQKPGQSPKLLIYKVSNRFSGVPDRFSGSGSGTDFTLKISRVEAEDLGVYFCSHSTHVPFTFGSGTKLEIKR
notes: Tested as hybridoma culture supernatant and as purified antibody
As to B1, the values for the Kd in assay [1] and in [2] were 0.085 nM and no more than 1 nM, respectively. For the same molecule, the binding result in [3] and in assay [4] was “no binding” in each case.

B2: anti-PLD4 mouse 10C3 antibody (antibody, mouse IgG2a, V domains shown)
VH: EVQLVESGGDLVRPGGSLKLSCAASGFSFSSYGMSWFRQTPDKRLEWVATISSGGSYIYYPESVKGRFTISRDNARNILYLQMSSLKSEDTAMYYCVRLYGGRRGYGLDYWGQGTSVTVSS
VL: EIVMTQAAFSNPVTLGTSASISCRSSKSLLHSDGITYLYWYLQKPGQSPQLLIYQMSNLASGVPDRFSSSGSGTDFTLRISRVEAEDVGVYYCAQNLELYTFGGGTKLEIKR
notes: as for B1
As to B2, the figures for the Kd in assay [1] and in [2] were 0.228 nM and no more than 1 nM, respectively. The binding result in [5] and in [6] was “no binding” throughout.

B3: anti-PLD4 mouse 11D10 antibody (antibody, mouse IgG2b, V domains shown)
VH: B2 VH
VL: B2 VL
notes: as for B1
Turning to B3, the Kd was 0.192 nM in [1] and no more than 1 nM in assay [2]. For the same molecule, the binding result in [7] and in assay [8] was “no binding” throughout.

B4: anti-PLD4 mouse 3B4 antibody (antibody, V domains shown)
VH: EVQLQQSGTVLSRPGASVTMSCKASGDSFTTYWMHWVKQRPGQGLEWIGAIYPGNSETSYNQKFKGKAKLTAVTSASTAYMEFTSLTNEDSAVYYCTGGYSDFDYWGQGTTLTVSS
VL: DILMTQSPSSMSVSLGDTVSITCHASQGIRSNIGWLQQKPGKSFKGLIFHGTNLEDGVPSRFSGRGSGADYSLTINSLESEDFADYYCVQYVQFPPTFGSGTKLEIRR
notes: Tested as hybridoma culture supernatant and as protein A purified antibody
On to B4, for which the Kd is 2.12 nM in assay [1] and greater than 1 nM in assay [2]. Further, the binding result in assay [9] and in assay [10] was “binds” each time.

B5: anti-PLD4 mouse 11G9.6 antibody (antibody, V domains shown)
VH: QVQLQQPGAELVKPGTSVKMSCKASGYTFTSYWMHWVKQRPGQGLEWIGDIYPGSDSTNYNEKFKSKATLTVDTSSSTAYMQLSSLTSEDSAVYYCARGGWLDAMDYWGQGTSVTVSS
VL: DIQMTQTTSSLSASLGDRVTISCRASQDISNYLNWYQQKPDGTVKLLIYYTSRLHSGVPSRFSGSGSGTDYSLTISNLEQEDIATYFCQQGNTLPWTFGGGTKLEIKR
notes: Tested as hybridoma culture supernatant and as purified antibody; also called mp11G9.6; mp11G9.6 antibody
For the molecule B5, the values for the Kd in assay [1] and in [2] were 0.058 nM and no more than 1 nM, respectively. The binding result in assay [11] and in assay [12] was “no binding” each time.

B6: anti-PLD4 chimeric 11G9 antibody (antibody, human IgG1, kappa, V domains shown)
VH: B5 VH
VL: B5 VL
notes: Mouse 11G9.6 variable regions on human IgG1 heavy and human Ig kappa light constant regions; also called ch11G9.6; ch11G9.6 antibody
For the molecule B6, the results for the binding result in assay [11], in [12] and in assay [13] were “no binding”, “no binding” and “binds”, respectively.

(Values after patent US20150044226A1 (SBI BIOTECH, published 2015).)
